The values below come from patent publication EP4786492A1.

For assay [1], the target named is human DLL3 endogenously expressed on SHP77 and NCI-H82 cells (human) (UniProt Q9NYJ7). Briefly: FACS SHP77 cells, 4 nM.
Assay [2] has the same target. Briefly: FACS SHP77 cells, 20 nM.
The target is the same in assay [3]. Description: FACS SHP77 cells, 0.8 nM.
Assay [4] has the same target. Description: FACS SHP77 cells, 100 nM.
Assay [5] shares this target. Description: FACS SHP77 cells, 0.16 nM.
For assay [6] the target is unchanged. Description: FACS SHP77 cells, 0.032 nM.
Assay [7] has the same target. Briefly: FACS SHP77 cells, 0.0064 nM.
Assay [8] has the same target. Description: FACS SHP77 cells, 0.00128 nM.
Assay [9] addresses monkey DLL3 on CHO K1-cyno DLL3 cells (cynomolgus monkey DLL3 extracellular segment joined to EpCAM transmembrane and intracellular regions) (cynomolgus monkey). Briefly: FACS, CHO K1-cyno DLL3 cells, 4 nM antibody.
Assay [10] shares this target. Briefly: FACS, CHO K1-cyno DLL3 cells, 20 nM antibody.
Assay [11] has the same target. Description: FACS, CHO K1-cyno DLL3 cells, 0.8 nM antibody.
For assay [12] the target is unchanged. Briefly: FACS, CHO K1-cyno DLL3 cells, 100 nM antibody.
Assay [13] has the same target. Briefly: FACS, CHO K1-cyno DLL3 cells, 0.16 nM antibody.
The target is the same in assay [14]. Description: FACS, CHO K1-cyno DLL3 cells, 0.032 nM antibody.
Assay [15] shares this target. Description: FACS, CHO K1-cyno DLL3 cells, 0.0064 nM antibody.
Assay [16] shares this target. Description: FACS, CHO K1-cyno DLL3 cells, 0.00128 nM antibody.
Assay [17] has as its target human delta-like ligand 3 (DLL3) on SHP77 cells (human) (UniProt Q9NYJ7). Briefly: FACS on SHP77 cells.
In assay [18] the target is human DLL1 protein (human) (UniProt O00548). Briefly: ELISA, maximum over 0.1-100 nM.
Assay [19] concerns the target human DLL4 protein (human) (UniProt Q9NR61). Description: ELISA, maximum over 0.1-100 nM.
Assay [20] deals with DLL3 endogenously expressed on NCI-H82 cells (UniProt Q9NYJ7). Description: FACS on NCI-H82 cells; antibody 4 nM.
Assay [21] shares this target. Briefly: FACS on NCI-H82 cells; antibody 20 nM.
Assay [22] shares this target. Briefly: FACS on NCI-H82 cells; antibody 0.8 nM.
For assay [23] the target is unchanged. Briefly: FACS on NCI-H82 cells; antibody 100 nM.
Assay [24] has the same target. Description: FACS on NCI-H82 cells; antibody 0.16 nM.
In assay [25] the target is human DLL3 protein expressed on CHO-K1 recombinant cells (human DLL3 extracellular segment fused to EpCAM transmembrane and intracellular regions) (human) (UniProt Q9NYJ7). Description: FACS, CHO-K1 hDLL3 cells, 4 nM antibody.
The target of assay [26] is DLL3 endogenously expressed on NCI-H82 cells (UniProt Q9NYJ7). Description: FACS on NCI-H82 cells; antibody 0.032 nM.
The target of assay [27] is human DLL3 protein expressed on CHO-K1 recombinant cells (human DLL3 extracellular segment fused to EpCAM transmembrane and intracellular regions) (human) (UniProt Q9NYJ7). Briefly: FACS, CHO-K1 hDLL3 cells, 20 nM antibody.
For assay [28], the target named is DLL3 endogenously expressed on NCI-H82 cells (UniProt Q9NYJ7). Briefly: FACS on NCI-H82 cells; antibody 0.0064 nM.
For assay [29], the target named is human DLL3 protein expressed on CHO-K1 recombinant cells (human DLL3 extracellular segment fused to EpCAM transmembrane and intracellular regions) (human) (UniProt Q9NYJ7). Description: FACS, CHO-K1 hDLL3 cells, 0.8 nM antibody.
The target is the same in assay [30]. Description: FACS, CHO-K1 hDLL3 cells, 100 nM antibody.
Assay [31] has as its target DLL3 endogenously expressed on NCI-H82 cells (UniProt Q9NYJ7). Description: FACS on NCI-H82 cells; antibody 0.00128 nM.
Assay [32] addresses human DLL3 protein expressed on CHO-K1 recombinant cells (human DLL3 extracellular segment fused to EpCAM transmembrane and intracellular regions) (human) (UniProt Q9NYJ7). Description: FACS, CHO-K1 hDLL3 cells, 0.16 nM antibody.
Assay [33] has the same target. Description: FACS, CHO-K1 hDLL3 cells, 0.032 nM antibody.
The target is the same in assay [34]. Briefly: FACS, CHO-K1 hDLL3 cells, 0.0064 nM antibody.
Assay [35] has the same target. Briefly: FACS, CHO-K1 hDLL3 cells, 0.00128 nM antibody.
The target in assay [36] is human DLL1 protein (Acro, Cat. No. DL1-H52H8) (human) (UniProt O00548). Description: ELISA, coated hDLL1; maximum over 0.1, 1, 10, 100 nM antibody.
Assay [37] addresses human DLL4 protein (Acro, Cat. No. DL4-H5227) (human) (UniProt Q9NR61). Description: ELISA, coated hDLL4; maximum over 0.1, 1, 10, 100 nM antibody.

“And” between values parts separate entries of the source, which are not always exact repeats. Identical values can stand only once.

monkey DLL3 on CHO K1-cyno DLL3 cells (cynomolgus monkey DLL3 extracellular segment joined to EpCAM transmembrane and intracellular regions) (cynomolgus monkey), sequence (chain, as listed by the source limits assumed): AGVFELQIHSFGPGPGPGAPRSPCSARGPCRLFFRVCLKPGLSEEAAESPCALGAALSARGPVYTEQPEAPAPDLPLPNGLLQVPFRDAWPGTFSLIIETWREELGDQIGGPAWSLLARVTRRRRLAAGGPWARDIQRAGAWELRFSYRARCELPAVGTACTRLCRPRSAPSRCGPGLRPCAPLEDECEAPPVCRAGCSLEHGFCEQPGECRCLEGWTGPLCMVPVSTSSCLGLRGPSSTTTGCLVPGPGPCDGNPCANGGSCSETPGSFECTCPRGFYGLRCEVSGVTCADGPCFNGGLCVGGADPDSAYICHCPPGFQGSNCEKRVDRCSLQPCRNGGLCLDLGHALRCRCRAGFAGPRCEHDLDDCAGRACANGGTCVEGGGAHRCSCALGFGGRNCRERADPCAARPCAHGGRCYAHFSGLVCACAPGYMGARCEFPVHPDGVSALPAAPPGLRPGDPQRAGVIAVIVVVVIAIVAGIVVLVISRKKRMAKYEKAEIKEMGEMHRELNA
human DLL3 protein expressed on CHO-K1 recombinant cells (human DLL3 extracellular segment fused to EpCAM transmembrane and intracellular regions) (human), sequence (Q9NYJ7 other isoform, or with tags, fused parts or gaps limits assumed): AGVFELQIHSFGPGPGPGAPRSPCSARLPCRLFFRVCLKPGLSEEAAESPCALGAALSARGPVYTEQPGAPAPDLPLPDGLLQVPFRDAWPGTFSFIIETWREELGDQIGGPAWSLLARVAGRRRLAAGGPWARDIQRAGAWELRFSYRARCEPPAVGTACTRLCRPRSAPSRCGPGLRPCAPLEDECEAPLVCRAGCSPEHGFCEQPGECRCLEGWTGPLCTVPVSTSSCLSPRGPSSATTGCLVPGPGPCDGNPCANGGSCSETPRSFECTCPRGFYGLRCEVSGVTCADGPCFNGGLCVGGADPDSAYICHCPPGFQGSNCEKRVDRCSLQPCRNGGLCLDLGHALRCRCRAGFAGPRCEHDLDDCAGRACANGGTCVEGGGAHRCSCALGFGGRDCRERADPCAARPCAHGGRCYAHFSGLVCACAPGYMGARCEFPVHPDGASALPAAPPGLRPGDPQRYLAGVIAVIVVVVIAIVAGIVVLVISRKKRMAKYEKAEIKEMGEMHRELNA
human DLL1 protein (human), sequence (O00548 18-540 limits assumed): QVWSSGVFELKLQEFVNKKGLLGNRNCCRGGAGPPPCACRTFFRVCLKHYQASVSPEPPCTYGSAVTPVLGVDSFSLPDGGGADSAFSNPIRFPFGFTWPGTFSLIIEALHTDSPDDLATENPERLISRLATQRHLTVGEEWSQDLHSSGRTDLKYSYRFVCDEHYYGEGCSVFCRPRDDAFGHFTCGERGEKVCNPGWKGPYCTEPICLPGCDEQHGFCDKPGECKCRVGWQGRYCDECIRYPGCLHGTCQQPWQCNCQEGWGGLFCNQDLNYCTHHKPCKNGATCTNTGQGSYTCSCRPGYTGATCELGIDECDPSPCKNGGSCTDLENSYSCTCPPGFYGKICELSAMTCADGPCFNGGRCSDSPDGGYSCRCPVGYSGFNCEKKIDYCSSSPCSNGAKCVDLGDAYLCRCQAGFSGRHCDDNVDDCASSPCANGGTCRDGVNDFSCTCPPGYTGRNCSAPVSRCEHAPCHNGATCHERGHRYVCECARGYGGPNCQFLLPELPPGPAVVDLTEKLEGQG
DLL3 endogenously expressed on NCI-H82 cells, sequence (Q9NYJ7 27-618): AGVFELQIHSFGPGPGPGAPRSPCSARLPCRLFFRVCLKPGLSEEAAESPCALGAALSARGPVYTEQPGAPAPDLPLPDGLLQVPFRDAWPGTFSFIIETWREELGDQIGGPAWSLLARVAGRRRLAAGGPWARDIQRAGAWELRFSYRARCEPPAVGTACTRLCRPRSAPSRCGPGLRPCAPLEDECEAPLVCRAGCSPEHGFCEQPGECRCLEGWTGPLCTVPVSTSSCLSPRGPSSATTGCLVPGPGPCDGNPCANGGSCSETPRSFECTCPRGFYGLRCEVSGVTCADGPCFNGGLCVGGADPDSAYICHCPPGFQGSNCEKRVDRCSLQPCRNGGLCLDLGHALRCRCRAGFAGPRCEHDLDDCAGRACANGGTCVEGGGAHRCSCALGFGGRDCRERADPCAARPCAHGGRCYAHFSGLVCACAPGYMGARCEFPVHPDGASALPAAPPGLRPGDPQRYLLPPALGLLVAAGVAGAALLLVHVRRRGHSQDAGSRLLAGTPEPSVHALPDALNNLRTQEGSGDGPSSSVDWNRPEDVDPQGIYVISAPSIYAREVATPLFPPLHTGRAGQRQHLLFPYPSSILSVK
human DLL3 endogenously expressed on SHP77 and NCI-H82 cells (human), sequence (Q9NYJ7 27-618): as above
human delta-like ligand 3 (DLL3) on SHP77 cells (human), sequence (Q9NYJ7 27-618, stated change not applied): as the sequence (Q9NYJ7 27-618) above
human DLL4 protein (human), sequence (Q9NR61 27-524 limits assumed): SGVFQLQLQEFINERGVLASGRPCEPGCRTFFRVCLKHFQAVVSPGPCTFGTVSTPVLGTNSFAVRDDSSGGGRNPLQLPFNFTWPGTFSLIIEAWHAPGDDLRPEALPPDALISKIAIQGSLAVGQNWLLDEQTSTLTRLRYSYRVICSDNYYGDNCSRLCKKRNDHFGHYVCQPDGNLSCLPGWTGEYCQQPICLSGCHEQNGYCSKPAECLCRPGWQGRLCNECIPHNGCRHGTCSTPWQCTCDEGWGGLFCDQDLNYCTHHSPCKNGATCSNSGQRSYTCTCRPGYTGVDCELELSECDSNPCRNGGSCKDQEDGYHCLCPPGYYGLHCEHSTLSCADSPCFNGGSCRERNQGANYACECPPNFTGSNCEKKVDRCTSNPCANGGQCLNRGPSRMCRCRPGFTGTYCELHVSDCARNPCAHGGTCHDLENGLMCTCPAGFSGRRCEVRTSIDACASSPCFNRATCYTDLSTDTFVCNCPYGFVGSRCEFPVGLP
human DLL1 protein (Acro, Cat. No. DL1-H52H8) (human), sequence (O00548 18-540 limits assumed): as the sequence (O00548 18-540 limits assumed) above
human DLL4 protein (Acro, Cat. No. DL4-H5227) (human), sequence (Q9NR61 27-524 limits assumed): as the sequence (Q9NR61 27-524 limits assumed) above

B1: mab003 scFv-hFc (Fc fusion, part only; not given: VL-VH linker and human IgG1 Fc, not shown: another chain or arm of the molecule; a dimerising Fc or GST; small tags and cut ends)
scFv (part 1 of 2): DVQITQSPSYLAASPGETITINCRASKSISKYLAWYQEKPGKTNKLLIYSGSTLHSGIPSRFSGSGSGTDFTLTISSLEPEDFAIYYCQQHNEYPLTFGGGTKLELK
scFv (part 2 of 2): QVQLQQSGTELMKPGASVKLSCKATGYTFTGNWIEWVKQRPGHGLEWIGEILPGTGSTQYNEKFKGKATFTADPSSNTAYMQLSSLTTEDSAIYYCARWGSTVVAYDYWGQGTTLTVSS
On to B1, for which the MFI in [1] is 789 MFI; in assay [2] it was 1280 MFI; in [3] it was 732 MFI; in [4], 976 MFI; in assay [5] it was 566 MFI; in assay [6] it was 351 MFI. Also, the MFI turned out to be 197 MFI in assay [7]; 182 MFI in [8]; 7470 MFI in assay [9]; 8420 MFI in [10]; 5570 MFI in [11]; 10600 MFI in assay [12]. The MFI in assay [13] was 1820 MFI; in assay [14] it was 566 MFI; in [15], 243 MFI; in assay [16], 163 MFI.

B2: BI3 (antibody, human IgG1, kappa, V domains shown)
VH: QVQLVQSGAEVKKPGASVKVSCKASGYTFTSYYVHWVRQAPGQGLEWMVIINPGGGTTSYAQKFLGRVTMTRDTSTNTVYMELKSLRSEDTAVYYCARGEAVTGNYFYYGMDVWGQGTTVTVSS
VL: DIQMTQSPSAMSASVGDRVTITCRASQGISNYLVWFQQKPGKAPKRLIYAVSSLYSGVPSRFSGSGSGTEFTLTISSLQPEDFATYYCLQHDSYPYTFGQGTKLEIKR
As for B2, the MFI at 0.00128 nM in assay [17] is 101 MFI. The MFI at 0.0064 nM in assay [17] amounted to 105 MFI. The molecule further yielded an MFI at 0.032 nM in assay [17] of 110 MFI. Also, the MFI at 0.16 nM in assay [17] stood at 148 MFI. In addition, in assay [17], the MFI at 0.8 nM was determined as 252 MFI. Besides, the MFI at 4 nM in assay [17] was 498 MFI. The molecule further registered an MFI at 20 nM in assay [17] of 807 MFI. Besides, the MFI at 100 nM in [17] stood at 967 MFI. For the same molecule, the Emax of OD450 nm binding value was 0.05 OD450 and 0.07 OD450 in assay [18]; 0.05 OD450 and 0.04 OD450 in assay [19]; 0.14 OD450 nm in assay [36]; 0.06 OD450 nm in [37]. Moreover, the MFI came out at 795 in [20]; 882 in [21]; 518 in assay [22]; 1010 in assay [23]; 256 in [24]; 12600 MFI in assay [25]. Further, the MFI worked out at 155 in assay [26]; 13400 MFI in assay [27]; 121 in assay [28]; 7770 MFI in [29]; 13200 MFI in [30]; 112 in assay [31]. In addition, the MFI in assay [32] worked out at 2660 MFI; in assay [33], 924 MFI; in assay [34], 452 MFI; in [35], 310 MFI.

B3: mab010 scFv-hFc (Fc fusion, not shown: small tags and cut ends; a dimerising Fc or GST)
scFv (part 1 of 2): DIQMTQSPASLSVSVGETVTITCRASENINSNLAWYQQKQGKSPQLLVYAATNLADGVPSRFSGSGSGTQFSLKISGLQSEDFGSYYCQHFWGLPWTFGGGTKLEIR
scFv (part 2 of 2): QVQLQQSGAELARPGASMKLSCKASGYTFTSYGISWVKQITGQGLEWIGEIFPRSGNTYDNENFRGKATLTADKSSSTAYLEVRSLTSEDSAVYFCARTTVFAPYYFDYWGQGTTLTVSS
As to B3, the MFI in assay [1] was 707 MFI; in assay [2], 855 MFI; in [3], 619 MFI; in [4] it was 1140 MFI; in assay [5], 523 MFI; in [6] it was 278 MFI. The MFI turned out to be 161 MFI in assay [7] and 113 MFI in [8]. The Emax of OD450 nm binding value is 1.16 OD450 in assay [18] and 0.06 OD450 in assay [19].
